± gives the standard deviation.
Assay: protein stability index of a GFP-peptide fusion (GPS, HEK-293T) (PSI 1-6); higher = more stable
Details: c terminus: a fixed tail appended
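Further: 24-mer peptide tiles fused after GFP, lentivirally expressed, FACS-sorted into six equal bins by GFP/DsRed ratio, decoded by Illumina sequencing, PSI is the read-weighted mean bin number.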

Sequence: AMEKFREDEGFLREEERPLPRRDF [KCNA3]
- protein stability index (treatment: DMSO): 4.74 ± 0.23
- protein stability index (treatment: MLN4924 1 uM, 8 h): 4.74 ± 0.17

Sequence: MLKAEETCAPSVSYFKCVQKEVLP [CCND1]
- protein stability index (treatment: DMSO): 3.52 ± 0.12
- protein stability index (treatment: MLN4924 1 uM, 8 h): 3.55 ± 0.24

Sequence: FISQVTVLKYFSHYMEENLMDGGD [PLK2]
- protein stability index (treatment: DMSO): 2.46 ± 0.69
- protein stability index (treatment: MLN4924 1 uM, 8 h): 2.3 ± 0.49

Sequence: EVHSLTLSPPEQAAQPMQPLPESL [PLAGL1]
- protein stability index (treatment: DMSO): 4.92 ± 0.26
- protein stability index (treatment: MLN4924 1 uM, 8 h): 5.02 ± 0.088

Sequence: AIQYALNIAFSEAEGARPLRENVP [MATN2]
- protein stability index (treatment: DMSO): 2.36 ± 0.21
- protein stability index (treatment: MLN4924 1 uM, 8 h): 2.08 ± 0.23

Sequence: HNLIEQVSLGLGQPWHAVMDIESL [FBXO33]
- protein stability index (treatment: DMSO): 2.59 ± 0.52
- protein stability index (treatment: MLN4924 1 uM, 8 h): 2.48 ± 0.16

Sequence: SCAPSASIPKLKLTRPVPAGADLP [PWWP2B]
- protein stability index (treatment: DMSO): 3.21 ± 0.25
- protein stability index (treatment: MLN4924 1 uM, 8 h): 3.35 ± 0.27

Sequence: DEVDDFEDFIFSHFFGDKALKKRS [PBXIP1]
- protein stability index (treatment: DMSO): 3.26 ± 0.23
- protein stability index (treatment: MLN4924 1 uM, 8 h): 3.29 ± 0.39

Sequence: GPPPGAPHTPQTPGQGGPASTPAQ [NR2F2]
- protein stability index (treatment: DMSO): 5.34 ± 0.18
- protein stability index (treatment: MLN4924 1 uM, 8 h): 5.34 ± 0.16

Sequence: GVVVEDGVCIRRCTVLRDARIRSH [GMPPB]
- protein stability index (treatment: DMSO): 2.83 ± 0.19
- protein stability index (treatment: MLN4924 1 uM, 8 h): 2.75 ± 0.33

Sequence: VFLVSCALPDSVLRRFVVRTMCAV [AUP1]
- protein stability index (treatment: DMSO): 2.71 ± 0.49
- protein stability index (treatment: MLN4924 1 uM, 8 h): 2.67 ± 0.068

Sequence: NRASLYSFPEPEAAQPMTKKRKVD [PRAME]
- protein stability index (treatment: DMSO): 4.54 ± 0.27
- protein stability index (treatment: MLN4924 1 uM, 8 h): 4.74 ± 0.14

Sequence: TAFCTHVFPETAFIAVTSYQNHKI [TBX5]
- protein stability index (treatment: DMSO): 2.31 ± 0.41
- protein stability index (treatment: MLN4924 1 uM, 8 h): 2.27 ± 0.42

Sequence: FEKLLQLTSQNIEIKLVSDVTADS [PLD5]
- protein stability index (treatment: DMSO): 2.69 ± 0.59
- protein stability index (treatment: MLN4924 1 uM, 8 h): 2.72 ± 0.37

Sequence: FHCIETLVTTGANVNETDDWGRTA [ANKRD44]
- protein stability index (treatment: DMSO): 2.62 ± 0.32
- protein stability index (treatment: MLN4924 1 uM, 8 h): 3.15 ± 0.36

Sequence: LGQHMVEQLLARGYAVNVFDIQQG [NSDHL]
- protein stability index (treatment: DMSO): 2.72 ± 0.9
- protein stability index (treatment: MLN4924 1 uM, 8 h): 2.22 ± 0.57

Sequence: DKFKRPTPPPSPNTQTPVQPPPPP [CCDC6]
- protein stability index (treatment: DMSO): 5.03 ± 0.091
- protein stability index (treatment: MLN4924 1 uM, 8 h): 5.12 ± 0.16

Sequence: LFLDLLQSYKDLCERHEKGVLHKH [SNX8]
- protein stability index (treatment: DMSO): 2.49 ± 0.12
- protein stability index (treatment: MLN4924 1 uM, 8 h): 2.64 ± 0.37

Sequence: SFANDRENYDIIKTYHYLYLAMLE [FEM1B]
- protein stability index (treatment: DMSO): 2.44 ± 1.1
- protein stability index (treatment: MLN4924 1 uM, 8 h): 2.33 ± 0.61

Sequence: IQASAGVISKKAKVKVPQKTAGKE [ZNF75A]
- protein stability index (treatment: DMSO): 4.6 ± 0.16
- protein stability index (treatment: MLN4924 1 uM, 8 h): 4.79 ± 0.27

Sequence: SRQYDKFLTHFILMNDVIDTSGFP [FBXO33]
- protein stability index (treatment: DMSO): 2.51 ± 0.5
- protein stability index (treatment: MLN4924 1 uM, 8 h): 1.97 ± 0.5

Sequence: FQEYDTDCEVFRQRFRQFQYREAA [ZNF449]
- protein stability index (treatment: DMSO): 2.77 ± 0.27
- protein stability index (treatment: MLN4924 1 uM, 8 h): 3.18 ± 0.23

Sequence: YPPLEGHVRQGVFSSLNHIVEKRV [INTS3]
- protein stability index (treatment: DMSO): 3.17 ± 0.3
- protein stability index (treatment: MLN4924 1 uM, 8 h): 3.38 ± 0.38

Sequence: EGVEIMLGVCASGLLIYRDRLRIN [EPB41L3]
- protein stability index (treatment: DMSO): 2.75 ± 2.1
- protein stability index (treatment: MLN4924 1 uM, 8 h): 2.12 ± 0.2

Sequence: QKILCAKAENARLVVNIDNAKLAS [KRT34]
- protein stability index (treatment: DMSO): 3.49 ± 0.2
- protein stability index (treatment: MLN4924 1 uM, 8 h): 3.56 ± 0.11

Sequence: VKFCLLGALLAPIRVLLAFIVLFL [LPCAT4]
- protein stability index (treatment: DMSO): 2.15 ± 0.29
- protein stability index (treatment: MLN4924 1 uM, 8 h): 1.86 ± 0.2

Sequence: YLMKTKQFRLKEAFDYIKQRRSMV [DUSP5]
- protein stability index (treatment: DMSO): 2.19 ± 0.38
- protein stability index (treatment: MLN4924 1 uM, 8 h): 2.11 ± 0.33

Sequence: QPPLSATVTLTVAVADSIPQVLAD [PCDHGA10]
- protein stability index (treatment: DMSO): 2.56 ± 0.24
- protein stability index (treatment: MLN4924 1 uM, 8 h): 2.7 ± 0.36

Sequence: WIHCFEGVTAIIFCVALSDYDLVL [GNAI1]
- protein stability index (treatment: DMSO): 3.2 ± 0.53
- protein stability index (treatment: MLN4924 1 uM, 8 h): 3.22 ± 0.24

Sequence: NREHLVMMEKILGPIPSHMIHRTR [CLK3]
- protein stability index (treatment: DMSO): 2.79 ± 0.34
- protein stability index (treatment: MLN4924 1 uM, 8 h): 2.89 ± 0.33

Sequence: GAHFPQVPGGAVRVAAAAGSGPSP [PI4K2A]
- protein stability index (treatment: DMSO): 4.53 ± 0.14
- protein stability index (treatment: MLN4924 1 uM, 8 h): 4.48 ± 0.088

Sequence: LLRDPADASEAHESSSRGEAGAPG [CHGB]
- protein stability index (treatment: DMSO): 5.45 ± 0.28
- protein stability index (treatment: MLN4924 1 uM, 8 h): 5.34 ± 0.24

Sequence: ALEAAVHVQKLSQECLKQLAIKKQ [TRIM14]
- protein stability index (treatment: DMSO): 3.91 ± 0.16
- protein stability index (treatment: MLN4924 1 uM, 8 h): 3.54 ± 0.52

Sequence: KSSTVGLVTLNDMKAKQEALVKER [FAM50A]
- protein stability index (treatment: DMSO): 4.69 ± 0.31
- protein stability index (treatment: MLN4924 1 uM, 8 h): 4.45 ± 0.39

Sequence: PALDIFGDLFESTPEVAAAPKPDA [SNAP91]
- protein stability index (treatment: DMSO): 4.57 ± 0.21
- protein stability index (treatment: MLN4924 1 uM, 8 h): 4.67 ± 0.27

Sequence: GENAGSLTHIEAQNKIRACGERLS [PDLIM7]
- protein stability index (treatment: DMSO): 4.57 ± 0.26
- protein stability index (treatment: MLN4924 1 uM, 8 h): 4.62 ± 0.14

Sequence: FHLSLFQGWMNLLNMAKKSVDIVS [PLD5]
- protein stability index (treatment: DMSO): 2.99 ± 1.5
- protein stability index (treatment: MLN4924 1 uM, 8 h): 1.73 ± 0.94

Sequence: SSRQEKRPLCAQGDWHSPTLIREK [ELOA2]
- protein stability index (treatment: DMSO): 4.05 ± 0.24
- protein stability index (treatment: MLN4924 1 uM, 8 h): 4.23 ± 0.25

Sequence: ENYNNLANAVISVSGINHDVTSGD [CPN1]
- protein stability index (treatment: DMSO): 4.28 ± 0.2
- protein stability index (treatment: MLN4924 1 uM, 8 h): 4.4 ± 0.14

Sequence: CSFCKRAFPSGHLLDAHILEWHDS [ZNF511]
- protein stability index (treatment: DMSO): 5.19 ± 0.093
- protein stability index (treatment: MLN4924 1 uM, 8 h): 5.12 ± 0.24

Sequence: GQFVSLDGAGKTPTLGGGFHVNLG [BRF1]
- protein stability index (treatment: DMSO): 2.96 ± 0.37
- protein stability index (treatment: MLN4924 1 uM, 8 h): 3.06 ± 0.11

Sequence: LAWRIVNDTYRTDLCLLYPPFMIA [CCNC]
- protein stability index (treatment: DMSO): 2.86 ± 0.49
- protein stability index (treatment: MLN4924 1 uM, 8 h): 3.34 ± 0.71

Sequence: CENFPEMATYLRYVRRLDFFEKPD [CSNK1G3]
- protein stability index (treatment: DMSO): 2.21 ± 0.25
- protein stability index (treatment: MLN4924 1 uM, 8 h): 2.59 ± 0.51

Sequence: PDRVYIHPDSPATGAHWMRQPVSF [TBX6]
- protein stability index (treatment: DMSO): 2.45 ± 0.22
- protein stability index (treatment: MLN4924 1 uM, 8 h): 2.54 ± 0.098

Source: the supplement of paper PMC10567573
